These results are taken from publication PMC3946051 (Molecular microbiology, 2014).

Data set [1] has as its target CrtJ (R. capsulatus) (UniProt P26167). The data set is described as follows: SEC.
For data set [2] the target is unchanged. The data set is described as follows: MST.
The data set “SEC” deals with the molecule itself. The data set is described as follows: SEC. (In general: In gel filtration, larger molecules generally elute earlier.)

As to AerR:B12 (natural protein), the stoichiometry N (as a rule, a count of units in the complex or per binding partner) with CrtJ (R. capsulatus) [1] turned out to be 1. Besides, the EC50 (in general, the concentration needed to bring the measured effect to its halfway point) with CrtJ (R. capsulatus) [2] was found to be 3.3 µM.

B1: CrtJ (natural protein, R. capsulatus, UniProt P26167 1-469, looked up)
chain: MTSDGSFLMRREALQRVSPDLLADIVTSACDIALVVSPGRVVESVMVNPQFGSAERFAAWQGARLSQLFSPESAQKLENRLADGPEPGRSLQLELTHAADAFTLPVRYTITRSGEDGTLLLIGRDMQPLAEVQQQLVKAQLALERDYEAQREIETRYRVLLEAHPAPLLIVSMSTGRIADLNLAAAAMIGATRAELIDAPVGQELDGRRRGEFLENLAKIAGSDPLGAVELTIRRSRRKVTVTATLFRAAGDRLLLCRLGEAEARRTRVDDTVELSERLFLKGIDAMVFLDADGTIRAANDAFLYLTDAGSAALVQGRSFADFLSRGAVDLNVLLDNVKRIGHLRHYVTRLNTDFSGQVTVELSATLFHDRATPTIALVIRDSNLADATRIMPGMASNEGLRNVMQMVGYATLRDIVSETTEIIEKMCIETALELTGNNRVAAAELLSLSRQSLYVKLRKFGLLSKDAE
In the case of B1, the “stoichiometry N” value in “SEC” was found to be 2.
